Measured values taken from US20060172374.
Several values for one entry are separate records, joined by “and”; a condition that tells them apart may be missing. Identical values can stand only once.

Experiments:
[1] = molecular target: bovine S100B (Sigma) (UniProt P02638)
[2] = tested on: myc-tagged hMOB1
[3] = tested on: GST-hMOB1
GST-hMOB1, sequence (chain, as listed by the source): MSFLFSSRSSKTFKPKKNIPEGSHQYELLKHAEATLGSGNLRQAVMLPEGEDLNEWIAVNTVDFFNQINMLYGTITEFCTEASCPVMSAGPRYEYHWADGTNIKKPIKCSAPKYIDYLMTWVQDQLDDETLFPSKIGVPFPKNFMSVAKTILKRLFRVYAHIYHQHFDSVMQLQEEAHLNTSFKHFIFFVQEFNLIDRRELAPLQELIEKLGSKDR

bovine S100B (Sigma), sequence (P02638 2-92): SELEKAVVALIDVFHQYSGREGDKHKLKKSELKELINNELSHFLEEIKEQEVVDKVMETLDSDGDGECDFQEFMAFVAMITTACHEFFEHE
GST-NDR2, sequence (chain, as listed by the source): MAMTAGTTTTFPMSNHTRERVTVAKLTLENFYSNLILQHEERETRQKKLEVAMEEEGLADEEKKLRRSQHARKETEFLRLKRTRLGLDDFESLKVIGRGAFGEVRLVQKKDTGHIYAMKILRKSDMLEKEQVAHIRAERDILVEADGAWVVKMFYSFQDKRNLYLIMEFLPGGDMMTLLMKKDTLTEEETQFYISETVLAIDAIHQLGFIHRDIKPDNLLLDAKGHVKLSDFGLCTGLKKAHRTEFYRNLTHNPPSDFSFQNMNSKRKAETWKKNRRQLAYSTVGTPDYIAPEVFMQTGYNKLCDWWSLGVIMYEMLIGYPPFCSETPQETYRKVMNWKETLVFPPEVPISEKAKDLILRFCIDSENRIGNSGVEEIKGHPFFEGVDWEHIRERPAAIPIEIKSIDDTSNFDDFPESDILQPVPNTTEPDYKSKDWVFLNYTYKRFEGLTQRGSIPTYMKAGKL

| Substance | autophosphorylation, incorporated 32P (Cerenkov counting), +S100B [1] | specific activity, peptide kinase assay, after autophosphorylation +S100B [1] | other results |
| --- | --- | --- | --- |
| GST-NDR1 S281A | 0.028 | 0.952 |  |
| GST-NDR1 T74A | 0.207 | 7.82 | S100B-mediated increase of phosphorylation of Ser281 and Thr444 (immunoblot with phosphospecific antibodies) [1]: the T74A point mutation abolished the S100B-mediated increase of phosphorylation for both Ser281 and Thr444 residues without affecting the intrinsic NDR1 autophosphorylation |
| GST-NDR1 T444A | 0.241 | 3.97 |  |
| GST-NDR1 kinase dead (K118A) | 0.0064 | 0.222 |  |
| GST-NDR1 wild type | 0.351 | 21.3 | increase in autophosphorylation [1]: an approximate 2-fold increase in autophosphorylation (on both Ser281 and Thr444); increase in kinase activity [1]: about a 5-fold increase in kinase activity; phosphorylation on Ser281 and Thr444 (immunoblot with phosphospecific antibodies) [1]: Ca2+/S100B was found to enhance phosphorylation on both Ser281 and Thr444 |
| GST-NDR2 |  |  | rate of NDR2 autophosphorylation [1]: increases the rate of NDR2 autophosphorylation by ˜2-fold after 4 hours of incubation; specific NDR activity [1]: stimulates the specific NDR activity in a concentration dependent manner up to ˜4-fold |
| HA-tagged NDR1 wild type |  |  | OA stimulated NDR kinase activity (peptide kinase assay of 12CA5 immunoprecipitates) [2]: 2 fold and 3 fold; NDR autophosphorylation activity (32P, SDS PAGE, phosphoimager) [3]: Addition of GST-hMOB1 to HA-NDR kinase reactions stimulated NDR autophosphorylation activity |
